Source: patent publication US20260250421A1 (BIOCYTOGEN PHARMACEUTICALS BEIJING, published 2026)
Positions count from the first letter of the chain named. Values belong to the binder of their own block, whether it stands above or below them.

Columns and labels:
[1] = target: T1, His-tagged human PTK7 protein (human, UniProt Q13308 31-704); assay: BLI Octet binning on hPTK7-His; competitor 1F2
T1 construct: Bought protein; also called hPTK7-His; not shown: His tag
T1 sequence: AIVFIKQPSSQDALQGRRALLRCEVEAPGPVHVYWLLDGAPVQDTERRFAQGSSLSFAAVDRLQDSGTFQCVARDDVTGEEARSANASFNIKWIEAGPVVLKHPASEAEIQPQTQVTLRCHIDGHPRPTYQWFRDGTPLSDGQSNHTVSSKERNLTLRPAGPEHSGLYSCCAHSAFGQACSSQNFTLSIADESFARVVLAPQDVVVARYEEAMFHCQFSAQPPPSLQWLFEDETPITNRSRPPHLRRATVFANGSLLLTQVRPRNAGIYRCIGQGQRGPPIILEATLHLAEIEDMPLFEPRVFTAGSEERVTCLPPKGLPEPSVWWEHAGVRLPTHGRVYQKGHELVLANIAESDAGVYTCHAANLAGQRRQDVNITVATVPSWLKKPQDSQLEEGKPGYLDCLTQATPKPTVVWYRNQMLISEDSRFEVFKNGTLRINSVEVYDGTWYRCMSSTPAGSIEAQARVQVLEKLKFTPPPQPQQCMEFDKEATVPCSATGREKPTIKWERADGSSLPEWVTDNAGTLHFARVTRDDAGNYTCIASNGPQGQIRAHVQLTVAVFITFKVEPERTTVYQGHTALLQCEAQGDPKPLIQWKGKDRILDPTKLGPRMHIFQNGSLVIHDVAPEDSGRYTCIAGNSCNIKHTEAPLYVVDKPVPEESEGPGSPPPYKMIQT
Method: Relative positions of target protein epitope between a pair of purified anti-PTK7 antibodies were analyzed by Biolayer Interferometry (BLI) using ForteBio Octet system at 30° C. A total of […] purified antibodies were used: 1A7, 1A11, 1F2, 2A5, 2D11, 2F5, 3C4 and 3E6.
1×HBS-EP+ buffer (10 mM 4-(2-hydroxyethyl)-1-piperazineethanesulfonic acid (HEPES), 150 mM NaCl, 3 mM ethylenediaminetetraacetic acid (EDTA) and 0.05% P20, pH7.4) diluted from HBS-EP+ buffer (10×) was used as the running buffer throughout the experiment. His-tagged human PTK7 protein was captured at a flow rate of 10 μL/min, and 200 nM of antibody (Analyte 1) was injected at a flow rate of 30 μL/min to bind the ligand. Another antibody (Analyte 2) was injected under the same conditions to determine whether the binding of different antibodies interfered with each other. The binding time was 300 s for each antibody.
The binding value of each antibody was obtained using Data Analysis HT 12.0. To quantify the interference of one antibody binding to another, a binding ratio was calculated to compare each pair of antibodies. The binding ratio is defined as the binding value of the second antibody (Analyte 2), divided by the binding value of the first antibody (Analyte 1). […] In general, antibody pairs that interfere with each other have the same or overlapping epitopes.

[2] = target: T2, His-tagged human TROP2 protein (human, UniProt P09758 27-274); assay: SPR Biacore 8K, Ab on Protein A chip
T2 construct: Bought protein; also called hTROP2-His; ACRO Biosystems Cat# TR2-H5223; not shown: His tag
T2 sequence (looked up): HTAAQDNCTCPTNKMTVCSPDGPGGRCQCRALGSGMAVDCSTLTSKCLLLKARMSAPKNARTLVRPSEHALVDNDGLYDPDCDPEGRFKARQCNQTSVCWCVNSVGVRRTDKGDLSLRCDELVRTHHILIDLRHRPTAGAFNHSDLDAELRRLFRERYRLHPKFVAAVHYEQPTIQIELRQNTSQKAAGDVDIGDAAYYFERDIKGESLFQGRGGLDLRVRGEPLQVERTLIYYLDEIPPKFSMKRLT
Method: (§1) The affinity of the anti-PTK7/TROP2 bispecific antibodies to His-tagged human TROP2 protein (hTROP2-His, ACRO Biosystems Inc., Cat #: TR2-H5223), His-tagged […] monkey TROP2 protein (cTROP2-His, ACRO Biosystems Inc., Cat #: Cat: TR2-R52H3), His-tagged dog TROP2 protein (dTROP2-His, ACRO Biosystems Inc., Cat #: TR2-C52H4), hPTK7-His, cPTK7-His and dPTK7-His were measured by surface plasmon resonance (SPR) using Biacore™ (Biacore, INC, Piscataway N.J.) 8K biosensor equipped with pre-immobilized Protein A sensor chips.

[3] = target: T1, His-tagged human PTK7 protein; assay: SPR Biacore 8K, Ab on Protein A chip
Method: as §1

[4] = target: T3, His-tagged cynomolgus monkey PTK7 protein (cynomolgus monkey, UniProt A0A2K5VNI5 39-712); assay: SPR Biacore 8K, Ab on Protein A chip
T3 construct: Bought protein; also called cPTK7-His; ACRO Biosystems Cat# PT7-C52H3; not shown: His tag
T3 sequence: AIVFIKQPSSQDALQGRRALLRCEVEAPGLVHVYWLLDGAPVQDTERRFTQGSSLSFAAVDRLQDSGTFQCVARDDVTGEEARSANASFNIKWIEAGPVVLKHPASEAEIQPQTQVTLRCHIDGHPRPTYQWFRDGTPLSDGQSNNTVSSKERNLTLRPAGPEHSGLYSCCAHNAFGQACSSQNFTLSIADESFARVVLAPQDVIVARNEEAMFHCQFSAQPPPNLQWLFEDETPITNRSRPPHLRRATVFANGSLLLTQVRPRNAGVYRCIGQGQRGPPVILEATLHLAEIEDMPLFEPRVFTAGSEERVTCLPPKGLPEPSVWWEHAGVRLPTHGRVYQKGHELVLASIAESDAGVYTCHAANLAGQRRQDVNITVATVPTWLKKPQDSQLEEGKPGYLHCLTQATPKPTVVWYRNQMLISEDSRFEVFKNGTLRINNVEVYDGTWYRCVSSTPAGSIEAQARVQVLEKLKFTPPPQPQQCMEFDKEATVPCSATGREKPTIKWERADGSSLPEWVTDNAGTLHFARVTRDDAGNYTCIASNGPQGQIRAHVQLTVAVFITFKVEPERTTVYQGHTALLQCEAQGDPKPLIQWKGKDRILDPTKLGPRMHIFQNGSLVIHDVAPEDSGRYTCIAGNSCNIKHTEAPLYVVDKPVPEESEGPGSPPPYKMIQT
Method: as §1

binding ratio [1]: 0.84
B1: 1A7 (antibody, human IgG1, V domains shown)
VH: QVQLVESGGGVVQPGRSLRLSCAASGFTFSNYGMHWVRQAPGKGLEWVAVIYYDGSNKFYADSVKGRFTISRDNSKNTLYLQMSSLRAEDTAVYYCARDVAPPGSRAEYFHHWGQGTLVTVSS
VL: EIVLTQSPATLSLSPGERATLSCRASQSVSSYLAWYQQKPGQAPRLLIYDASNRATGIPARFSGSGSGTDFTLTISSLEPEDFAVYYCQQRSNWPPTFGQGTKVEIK
notes: also called anti-PTK7 antibody 1A7

binding ratio [1]: 0.85
B2: 2F5 (antibody, V domains shown)
VH: B1 VH with A23V, V50I, F59Y, S84N, P102A, P103A, F110L
VL: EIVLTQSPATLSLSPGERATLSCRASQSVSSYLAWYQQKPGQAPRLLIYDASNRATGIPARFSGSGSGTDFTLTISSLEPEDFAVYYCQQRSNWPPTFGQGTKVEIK
notes: also called anti-PTK7 antibody 2F5

binding ratio [1]: 0.93
B3: 2D11 (antibody, V domains shown)
VH: B1 VH with N31S, Y52F, F59Y, S84N, A92S, P102A, H111Q, H112N
VL: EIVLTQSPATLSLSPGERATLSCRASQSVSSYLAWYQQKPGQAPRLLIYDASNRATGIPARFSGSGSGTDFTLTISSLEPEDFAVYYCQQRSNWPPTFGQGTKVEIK
notes: also called anti-PTK7 antibody 2D11

binding ratio [1]: 0.78
B4: 2A5 (antibody, V domains shown)
VH: B1 VH with E6Q, Y52W, S56R, F59Y, S84N, P103A, H111Q, H112N
VL: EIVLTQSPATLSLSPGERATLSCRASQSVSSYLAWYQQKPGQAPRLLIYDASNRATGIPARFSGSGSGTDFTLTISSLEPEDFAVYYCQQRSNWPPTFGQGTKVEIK
notes: also called anti-PTK7 antibody 2A5

binding ratio [1]: 0.86
B5: 1A11 (antibody, V domains shown)
VH: QVQLVQSGPGLVKPSETLSLTCTVSGGSINSYYWNWIRQPPGKGLEWIGYIYYSGSTNYNPSLKSRVTISVDTSKNQFSLKLSSVTAADTAVYYCARDPHDYIRGHFDLWGRGTLFTVSS
VL: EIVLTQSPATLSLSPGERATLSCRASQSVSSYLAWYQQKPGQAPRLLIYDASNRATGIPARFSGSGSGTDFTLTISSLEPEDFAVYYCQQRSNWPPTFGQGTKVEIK
notes: also called anti-PTK7 antibody 1A11

Kd [2]: 3.03 nM
koff [2]: 0.00107 s⁻¹
kon [2]: 353000 M⁻¹ s⁻¹
Kd [3]: 9.79 nM
koff [3]: 0.00125 s⁻¹
kon [3]: 128000 M⁻¹ s⁻¹
Kd [4]: 13.1 nM
koff [4]: 0.00167 s⁻¹
kon [4]: 127000 M⁻¹ s⁻¹
B6: 3C4-18E9 (bispecific antibody, human IgG1, V domains shown)
VH 1: QVQLEQSRAEVKKPGESLRISCKGSGYSFTSYWISWVRQMPGKGLEWMGRIDPSDSYTNYNPSFQGHVTISADKSISTAYLQWSSLKASDTAMYYCARRDGSYFDFDYWGQGTLVTVSS
VH 2: QLQLQQSGPGLLKPSETLSLTCTVSGGSISSSYYFWGWIRQPPGKGLEWIGAIYYIGNTHYNPSLKSRVTISIDTSKNQFSLNLNSVTAADTAIYYCARYEDTWNWFDPWGQGTLVTVSS
VL: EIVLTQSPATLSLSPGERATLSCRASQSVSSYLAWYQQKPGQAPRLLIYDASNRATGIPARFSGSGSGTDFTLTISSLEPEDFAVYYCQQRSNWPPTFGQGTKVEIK
notes: which arm carries the knob is stated only for 3C4-6F7; also called anti-PTK7/TROP2 bispecific antibody 3C4-18E9

binding ratio [1]: 0.9
B7: 3C4 (antibody, V domains shown)
VH: B6 VH 1
VL: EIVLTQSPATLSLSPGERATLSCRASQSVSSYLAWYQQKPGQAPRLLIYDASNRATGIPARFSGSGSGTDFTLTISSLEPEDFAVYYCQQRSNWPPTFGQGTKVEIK
notes: also called anti-PTK7 antibody 3C4

binding ratio [1]: 0.74
B8: 3E6 (antibody, V domains shown)
VH: B6 VH 1 with E5V, Q6E, R8G, K23R, N59K, N61S, S102D
VL: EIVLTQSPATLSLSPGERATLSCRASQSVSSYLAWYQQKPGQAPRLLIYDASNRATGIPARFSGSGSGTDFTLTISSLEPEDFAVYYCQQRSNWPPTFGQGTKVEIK
notes: also called anti-PTK7 antibody 3E6

binding ratio [1]: 0.03
B9: 1F2 (antibody, V domains shown)
VH: QVQLVQSGGGLVQPGGSLRLSCAASGFTFSRYEMNWVRQAPGKGLEWVSYINSIGSAINYADSVKGRFTISRDNAKNSLYLQMRSLRAEDTAVYYCVREDNWNPGYWGQGTLVTVSS
VL: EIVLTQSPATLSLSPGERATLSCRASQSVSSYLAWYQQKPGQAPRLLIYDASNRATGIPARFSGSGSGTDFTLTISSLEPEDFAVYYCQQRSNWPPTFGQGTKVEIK
notes: also called anti-PTK7 antibody 1F2
